Test results published in the supplement of paper PMC10266784.

B1: library; numbered along this chain (parent)
chain: MAAAAAAAAEQQSSNGPVKKSMREKAVERRSVNKEHNSNFKAGYIPIDEDRLHKTGLRGRKGNLAICVIILLFILAVINLIITLVIWAVIRIGPNGCDSMEFHESGLLRFKQVSDMGVIHPLYKSTVGGRRNENLVITGNNQPIVFQQGTTKLSVENNKTSITSDIGMQFFDPRTQNILFSTDYETHEFHLPSGVKSLNVQKASTERITSNATSDLNIKVDGRAIVRGNEGVFIMGKTIEFHMGGNMELKAENSIILNGSVMVSTTRLPSSSSGDQLGSGDWVRYKLCMCADGTLFKVQVTSQNMGCQISDNPCGNTH

Variants of: B1
Experiment: SGCB cell-surface expression functional score (HA stain, bin4 vs bin1, normalised to synonymous) (log10 ratio); higher = more cell-surface SGCB (functional)
Summary of the method: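 HEK293 cells stably expressing alpha-, gamma- and delta-sarcoglycan received codon-saturation libraries of HA-tagged, YFP-fused human beta-sarcoglycan by lentiviral transduction at MOI <0.1, performed in duplicate. Cells positive for YFP were sorted after 72 hours and cultured for 5–7 days, then stained on ice with Alexa Fluor 647 anti-HA and fixed. Fixed cells were sorted into four 5% intensity bins and amplicon-sequenced, and the log ratio of highest-bin to lowest-bin variant frequency, as a median over codons and transductions, gives the functional score. Per section, synonymous variants were scaled to mean 0, SD 0.5.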

Variant | SGCB cell-surface expression functional score (log10)
MAAAAAAAAEQQSSNGPVKKSMREKAVERRSVNKEHNSNFKAGYIPIDEDRLHKTGLRGRKGNLAICVIILLFILAVINLIITLVIGAVIRIGPNGCDSMEFHESGLLRFKQVSDMGVIHPLYKSTVGGRRNENLVITGNNQPIVFQQGTTKLSVENNKTSITSDIGMQFFDPRTQNILFSTDYETHEFHLPSGVKSLNVQKASTERITSNATSDLNIKVDGRAIVRGNEGVFIMGKTIEFHMGGNMELKAENSIILNGSVMVSTTRLPSSSSGDQLGSGDWVRYKLCMCADGTLFKVQVTSQNMGCQISDNPCGNTH [W87G] | -0.12
MAAAAAAAAEQQSSNGPVKKSMREKAVERRSVNKEHNSNFKAGYIPIDEDRLHKTGLRGRKGNLAICVIILLFILAVINLIITLVIQAVIRIGPNGCDSMEFHESGLLRFKQVSDMGVIHPLYKSTVGGRRNENLVITGNNQPIVFQQGTTKLSVENNKTSITSDIGMQFFDPRTQNILFSTDYETHEFHLPSGVKSLNVQKASTERITSNATSDLNIKVDGRAIVRGNEGVFIMGKTIEFHMGGNMELKAENSIILNGSVMVSTTRLPSSSSGDQLGSGDWVRYKLCMCADGTLFKVQVTSQNMGCQISDNPCGNTH [W87Q] | 0.02
MAAAAAAAAEQQSSNGPVKKSMREKAVERRSVNKEHNSNFKAGYIPIDEDRLHKTGLRGRKGNLAICVIILLFILAVINLIITLVINAVIRIGPNGCDSMEFHESGLLRFKQVSDMGVIHPLYKSTVGGRRNENLVITGNNQPIVFQQGTTKLSVENNKTSITSDIGMQFFDPRTQNILFSTDYETHEFHLPSGVKSLNVQKASTERITSNATSDLNIKVDGRAIVRGNEGVFIMGKTIEFHMGGNMELKAENSIILNGSVMVSTTRLPSSSSGDQLGSGDWVRYKLCMCADGTLFKVQVTSQNMGCQISDNPCGNTH [W87N] | 0.58
MAAAAAAAAEQQSSNGPVKKSMREKAVERRSVNKEHNSNFKAGYIPIDEDRLHKTGLRGRKGNLAICVIILLFILAVINLIITLVIHAVIRIGPNGCDSMEFHESGLLRFKQVSDMGVIHPLYKSTVGGRRNENLVITGNNQPIVFQQGTTKLSVENNKTSITSDIGMQFFDPRTQNILFSTDYETHEFHLPSGVKSLNVQKASTERITSNATSDLNIKVDGRAIVRGNEGVFIMGKTIEFHMGGNMELKAENSIILNGSVMVSTTRLPSSSSGDQLGSGDWVRYKLCMCADGTLFKVQVTSQNMGCQISDNPCGNTH [W87H] | -0.27
MAAAAAAAAEQQSSNGPVKKSMREKAVERRSVNKEHNSNFKAGYIPIDEDRLHKTGLRGRKGNLAICVIILLFILAVINLIITLVIAAVIRIGPNGCDSMEFHESGLLRFKQVSDMGVIHPLYKSTVGGRRNENLVITGNNQPIVFQQGTTKLSVENNKTSITSDIGMQFFDPRTQNILFSTDYETHEFHLPSGVKSLNVQKASTERITSNATSDLNIKVDGRAIVRGNEGVFIMGKTIEFHMGGNMELKAENSIILNGSVMVSTTRLPSSSSGDQLGSGDWVRYKLCMCADGTLFKVQVTSQNMGCQISDNPCGNTH [W87A] | -0.18
MAAAAAAAAEQQSSNGPVKKSMREKAVERRSVNKEHNSNFKAGYIPIDEDRLHKTGLRGRKGNLAICVIILLFILAVINLIITLVIKAVIRIGPNGCDSMEFHESGLLRFKQVSDMGVIHPLYKSTVGGRRNENLVITGNNQPIVFQQGTTKLSVENNKTSITSDIGMQFFDPRTQNILFSTDYETHEFHLPSGVKSLNVQKASTERITSNATSDLNIKVDGRAIVRGNEGVFIMGKTIEFHMGGNMELKAENSIILNGSVMVSTTRLPSSSSGDQLGSGDWVRYKLCMCADGTLFKVQVTSQNMGCQISDNPCGNTH [W87K] | 0.25
MAAAAAAAAEQQSSNGPVKKSMREKAVERRSVNKEHNSNFKAGYIPIDEDRLHKTGLRGRKGNLAICVIILLFILAVINLIITLVIRAVIRIGPNGCDSMEFHESGLLRFKQVSDMGVIHPLYKSTVGGRRNENLVITGNNQPIVFQQGTTKLSVENNKTSITSDIGMQFFDPRTQNILFSTDYETHEFHLPSGVKSLNVQKASTERITSNATSDLNIKVDGRAIVRGNEGVFIMGKTIEFHMGGNMELKAENSIILNGSVMVSTTRLPSSSSGDQLGSGDWVRYKLCMCADGTLFKVQVTSQNMGCQISDNPCGNTH [W87R] | -0.12
MAAAAAAAAEQQSSNGPVKKSMREKAVERRSVNKEHNSNFKAGYIPIDEDRLHKTGLRGRKGNLAICVIILLFILAVINLIITLVIPAVIRIGPNGCDSMEFHESGLLRFKQVSDMGVIHPLYKSTVGGRRNENLVITGNNQPIVFQQGTTKLSVENNKTSITSDIGMQFFDPRTQNILFSTDYETHEFHLPSGVKSLNVQKASTERITSNATSDLNIKVDGRAIVRGNEGVFIMGKTIEFHMGGNMELKAENSIILNGSVMVSTTRLPSSSSGDQLGSGDWVRYKLCMCADGTLFKVQVTSQNMGCQISDNPCGNTH [W87P] | -0.55
MAAAAAAAAEQQSSNGPVKKSMREKAVERRSVNKEHNSNFKAGYIPIDEDRLHKTGLRGRKGNLAICVIILLFILAVINLIITLVICAVIRIGPNGCDSMEFHESGLLRFKQVSDMGVIHPLYKSTVGGRRNENLVITGNNQPIVFQQGTTKLSVENNKTSITSDIGMQFFDPRTQNILFSTDYETHEFHLPSGVKSLNVQKASTERITSNATSDLNIKVDGRAIVRGNEGVFIMGKTIEFHMGGNMELKAENSIILNGSVMVSTTRLPSSSSGDQLGSGDWVRYKLCMCADGTLFKVQVTSQNMGCQISDNPCGNTH [W87C] | -0.23
MAAAAAAAAEQQSSNGPVKKSMREKAVERRSVNKEHNSNFKAGYIPIDEDRLHKTGLRGRKGNLAICVIILLFILAVINLIITLVIFAVIRIGPNGCDSMEFHESGLLRFKQVSDMGVIHPLYKSTVGGRRNENLVITGNNQPIVFQQGTTKLSVENNKTSITSDIGMQFFDPRTQNILFSTDYETHEFHLPSGVKSLNVQKASTERITSNATSDLNIKVDGRAIVRGNEGVFIMGKTIEFHMGGNMELKAENSIILNGSVMVSTTRLPSSSSGDQLGSGDWVRYKLCMCADGTLFKVQVTSQNMGCQISDNPCGNTH [W87F] | 0.33
MAAAAAAAAEQQSSNGPVKKSMREKAVERRSVNKEHNSNFKAGYIPIDEDRLHKTGLRGRKGNLAICVIILLFILAVINLIITLVILAVIRIGPNGCDSMEFHESGLLRFKQVSDMGVIHPLYKSTVGGRRNENLVITGNNQPIVFQQGTTKLSVENNKTSITSDIGMQFFDPRTQNILFSTDYETHEFHLPSGVKSLNVQKASTERITSNATSDLNIKVDGRAIVRGNEGVFIMGKTIEFHMGGNMELKAENSIILNGSVMVSTTRLPSSSSGDQLGSGDWVRYKLCMCADGTLFKVQVTSQNMGCQISDNPCGNTH [W87L] | -0.04
MAAAAAAAAEQQSSNGPVKKSMREKAVERRSVNKEHNSNFKAGYIPIDEDRLHKTGLRGRKGNLAICVIILLFILAVINLIITLVIEAVIRIGPNGCDSMEFHESGLLRFKQVSDMGVIHPLYKSTVGGRRNENLVITGNNQPIVFQQGTTKLSVENNKTSITSDIGMQFFDPRTQNILFSTDYETHEFHLPSGVKSLNVQKASTERITSNATSDLNIKVDGRAIVRGNEGVFIMGKTIEFHMGGNMELKAENSIILNGSVMVSTTRLPSSSSGDQLGSGDWVRYKLCMCADGTLFKVQVTSQNMGCQISDNPCGNTH [W87E] | -0.7
MAAAAAAAAEQQSSNGPVKKSMREKAVERRSVNKEHNSNFKAGYIPIDEDRLHKTGLRGRKGNLAICVIILLFILAVINLIITLVIMAVIRIGPNGCDSMEFHESGLLRFKQVSDMGVIHPLYKSTVGGRRNENLVITGNNQPIVFQQGTTKLSVENNKTSITSDIGMQFFDPRTQNILFSTDYETHEFHLPSGVKSLNVQKASTERITSNATSDLNIKVDGRAIVRGNEGVFIMGKTIEFHMGGNMELKAENSIILNGSVMVSTTRLPSSSSGDQLGSGDWVRYKLCMCADGTLFKVQVTSQNMGCQISDNPCGNTH [W87M] | 0.4
MAAAAAAAAEQQSSNGPVKKSMREKAVERRSVNKEHNSNFKAGYIPIDEDRLHKTGLRGRKGNLAICVIILLFILAVINLIITLVIIAVIRIGPNGCDSMEFHESGLLRFKQVSDMGVIHPLYKSTVGGRRNENLVITGNNQPIVFQQGTTKLSVENNKTSITSDIGMQFFDPRTQNILFSTDYETHEFHLPSGVKSLNVQKASTERITSNATSDLNIKVDGRAIVRGNEGVFIMGKTIEFHMGGNMELKAENSIILNGSVMVSTTRLPSSSSGDQLGSGDWVRYKLCMCADGTLFKVQVTSQNMGCQISDNPCGNTH [W87I] | 0.48
MAAAAAAAAEQQSSNGPVKKSMREKAVERRSVNKEHNSNFKAGYIPIDEDRLHKTGLRGRKGNLAICVIILLFILAVINLIITLVIDAVIRIGPNGCDSMEFHESGLLRFKQVSDMGVIHPLYKSTVGGRRNENLVITGNNQPIVFQQGTTKLSVENNKTSITSDIGMQFFDPRTQNILFSTDYETHEFHLPSGVKSLNVQKASTERITSNATSDLNIKVDGRAIVRGNEGVFIMGKTIEFHMGGNMELKAENSIILNGSVMVSTTRLPSSSSGDQLGSGDWVRYKLCMCADGTLFKVQVTSQNMGCQISDNPCGNTH [W87D] | 0.08
MAAAAAAAAEQQSSNGPVKKSMREKAVERRSVNKEHNSNFKAGYIPIDEDRLHKTGLRGRKGNLAICVIILLFILAVINLIITLVWWAVIRIGPNGCDSMEFHESGLLRFKQVSDMGVIHPLYKSTVGGRRNENLVITGNNQPIVFQQGTTKLSVENNKTSITSDIGMQFFDPRTQNILFSTDYETHEFHLPSGVKSLNVQKASTERITSNATSDLNIKVDGRAIVRGNEGVFIMGKTIEFHMGGNMELKAENSIILNGSVMVSTTRLPSSSSGDQLGSGDWVRYKLCMCADGTLFKVQVTSQNMGCQISDNPCGNTH [I86W] | -2.19
MAAAAAAAAEQQSSNGPVKKSMREKAVERRSVNKEHNSNFKAGYIPIDEDRLHKTGLRGRKGNLAICVIILLFILAVINLIITLVTWAVIRIGPNGCDSMEFHESGLLRFKQVSDMGVIHPLYKSTVGGRRNENLVITGNNQPIVFQQGTTKLSVENNKTSITSDIGMQFFDPRTQNILFSTDYETHEFHLPSGVKSLNVQKASTERITSNATSDLNIKVDGRAIVRGNEGVFIMGKTIEFHMGGNMELKAENSIILNGSVMVSTTRLPSSSSGDQLGSGDWVRYKLCMCADGTLFKVQVTSQNMGCQISDNPCGNTH [I86T] | -0.15
MAAAAAAAAEQQSSNGPVKKSMREKAVERRSVNKEHNSNFKAGYIPIDEDRLHKTGLRGRKGNLAICVIILLFILAVINLIITLVYWAVIRIGPNGCDSMEFHESGLLRFKQVSDMGVIHPLYKSTVGGRRNENLVITGNNQPIVFQQGTTKLSVENNKTSITSDIGMQFFDPRTQNILFSTDYETHEFHLPSGVKSLNVQKASTERITSNATSDLNIKVDGRAIVRGNEGVFIMGKTIEFHMGGNMELKAENSIILNGSVMVSTTRLPSSSSGDQLGSGDWVRYKLCMCADGTLFKVQVTSQNMGCQISDNPCGNTH [I86Y] | -0.61
MAAAAAAAAEQQSSNGPVKKSMREKAVERRSVNKEHNSNFKAGYIPIDEDRLHKTGLRGRKGNLAICVIILLFILAVINLIITLVVWAVIRIGPNGCDSMEFHESGLLRFKQVSDMGVIHPLYKSTVGGRRNENLVITGNNQPIVFQQGTTKLSVENNKTSITSDIGMQFFDPRTQNILFSTDYETHEFHLPSGVKSLNVQKASTERITSNATSDLNIKVDGRAIVRGNEGVFIMGKTIEFHMGGNMELKAENSIILNGSVMVSTTRLPSSSSGDQLGSGDWVRYKLCMCADGTLFKVQVTSQNMGCQISDNPCGNTH [I86V] | 0.32
